Where a chain is given by its changes, count along the chain named. In names and notes the source's numbering stands.
B1: P285A: adenosine A2A receptor NPFIY motif mutant P285A (protein, UniProt P29274 1-412, looked up, variant P285A)
Adenosine receptor A2a: MPIMGSSVYITVELAIAVLAILGNVLVCWAVWLNSNLQNVTNYFVVSLAAADIAVGVLAIPFAITISTGFCAACHGCLFIACFVLVLTQSSIFSLLAIAIDRYIAIRIPLRYNGLVTGTRAKGIIAICWVLSFAIGLTPMLGWNNCGQPKEGKNHSQGCGEGQVACLFEDVVPMNYMVYFNFFACVLVPLLLMLGVYLRIFLAARRQLKQMESQPLPGERARSTLQKEVHAAKSLAIIVGLFALCWLPLHIINCFTFFCPDCSHAPLWLMYLAIVLSHTNSVVNAFIYAYRIREFRQTFRKIIRSHVLRQQEPFKAAGTSARVLAAHGSDGEQVSLRLNGHPPGVWANGSAPHPERRPNGYALGLVSGGSAQESQGNTGLPDVELLSHELKGVCPEPPGLDDPLAQDGAGVS
B2: F286A: adenosine A2A receptor NPFIY motif mutant F286A (protein, UniProt P29274 1-412, looked up, variant F286A)
Adenosine receptor A2a: B1 Adenosine receptor A2a with A285P, F286A
B3: 287A: adenosine A2A receptor NPFIY motif mutant, residue 287 to alanine (protein, UniProt P29274 1-412, looked up, variant I287A)
Adenosine receptor A2a: B1 Adenosine receptor A2a with A285P, I287A
B4: Y288A: adenosine A2A receptor NPFIY motif mutant Y288A (protein, UniProt P29274 1-412, looked up, variant Y288A)
Adenosine receptor A2a: B1 Adenosine receptor A2a with A285P, Y288A
B5: M93A: 5HT2C receptor mutant, M93 to alanine (protein, UniProt P28335 33-458, looked up, variant M93A)
5-hydroxytryptamine receptor …: IVTDIFNTSDGGRFKFPDGVQNWPALSIVIIIIMTIGGNILVIMAVSMEKKLHNATNYFLASLAIADMLVGLLVMPLSLLAILYDYVWPLPRYLCPVWISLDVLFSTASIMHLCAISLDRYVAIRNPIEHSRFNSRTKAIMKIAIVWAISIGVSVPIPVIGLRDEEKVFVNNTTCVLNDPNFVLIGSFVAFFIPLTIMVITYCLTIYVLRRQALMLLHGHTEEPPGLSLDFLKCCKRNTAEEENSANPNQDQNARRRKKKERRPRGTMQAINNERKASKVLGIVFFVFLIMWCPFFITNILSVLCEKSCNQKLMEKLLNVFVWIGYVCSGINPLVYTLFNKIYRRAFSNYLRCNYKVEKKPPVRQIPRVAATALSGRELNVNIYRHTNEPVIEKASDNEPGIEMQVENLELPVNPSSVVSERISSV
B6: P365A: 5HT2C receptor NPLVY motif mutant P365A (protein, UniProt P28335 33-458, looked up, variant P365A)
5-hydroxytryptamine receptor …: B5 5-hydroxytryptamine receptor … with A61M, P333A
B7: Y368A: 5HT2C receptor NPLVY motif mutant Y368A (protein, UniProt P28335 33-458, looked up, variant Y368A)
5-hydroxytryptamine receptor …: B5 5-hydroxytryptamine receptor … with A61M, Y336A
B8: N364A: 5HT2C receptor NPLVY motif mutant N364A (protein, UniProt P28335 33-458, looked up, variant N364A)
5-hydroxytryptamine receptor …: B5 5-hydroxytryptamine receptor … with A61M, N332A
B9: V367A: 5HT2C receptor NPLVY motif mutant V367A (protein, UniProt P28335 33-458, looked up, variant V367A)
5-hydroxytryptamine receptor …: B5 5-hydroxytryptamine receptor … with A61M, V335A
B10: 1363: 5HT2C receptor mutant, residue 7.48 to alanine (protein, listed as Homo sapiens)
chain: MVNLRNAVHSFLVHLIGLLVWQCDISVSPVAAIVTDIFNTSDGGRFKFPDGVQNWPALSIVIIIIMTIGGNILVIMAVSMEKKLHNATNYFLMSLAIADMLVGLLVMPLSLLAILYDYVWPLPRYLCPVWISLDVLFSTASIMHLCAISLDRYVAIRNPIEHSRFNSRTKAIMKIAIVWAISIGVSVPIPVIGLRDEEKVFVNNTTCVLNDPNFVLIGSFVAFFIPLTIMVITYCLTIYVLRRQALMLLHGHTEEPPGLSLDFLKCCKRNTAEEENSANPNQDQNARRRKKKERRPRGTMQAINNERKASKVLGIVFFVFLIMWCPFFITNILSVLCEKSCNQKLMEKLLNVFVWIGYVCSGANPLVYTLFNKIYRRAFSNYLRCNYKVEKKPPVRQIPRVAATALSGRELNVNIYRHTNEPVIEKASDNEPGIEMQVENLELPVNPSSVVSERISSV

What was measured:
adenosine A2A receptor = experiment: Antagonist binding to adenosine A2A NPxxY motif alanine mutants (Table 1); set-up: species or system human; settings: for % of Wildtype binding / DPM1 / DPM2: antagonist binding; for DPM1: replicate 1; for DPM2: replicate 2; for Average - BG: average minus background; for Average: average of DPM1 and DPM2
Description: (§1) An alanine scan was carried out in a similar fashion on an adenosine A2A receptor along with the 5HT2C receptor in the presence of the antagonist Mesulergine. Both alanine scans were carried out in order to further stabilize the antagonist conformation. […] The motif in Adenosine A2A is NPFIY (SEQ ID NO: 364) and for the 5HT2C is NPLVY (SEQ ID NO: 363). Therefore mutations in this region of the receptor contain stabilising mutations specific to the agonist conformation and detrimentally effect antagonist binding.
Adenosine A2A receptor was solubilised from transiently transfected mammalian cells about 36 hours post transfection, in 50 mM Tris pH7.4/400 mM NaCl/0.5% DDM and protease inhibitor. Cell lysates were left at 4° C. on a rotator and then cleared by centrifugation at 13,200 rpm for 20 minutes at 4° C. Solubilised receptors were then purified on Ni-NTA beads and eluted with 50 mM histidine. The eluted receptor was used in radioligand binding assay. The Tm was determined by incubating 108 μl of the eluate with Zm241385 radioligand at a final concentration of 100 nM for one hour at 4° C. The six ligand incubations are then incubated at six different temperatures from 20° C. to 50° C., for thirty minutes. Receptor bound and free radioligand were separated using G25 Sephadex spin columns.

5HT2C receptor [1] = experiment: Thermostability of 5HT2C receptor bound to agonist SCH23390; assay type: physicochemical, human
Description: An alanine scan has been carried out on the 5HT2C receptor in the presence of the agonist SCH23390 in order to stabilise the agonist conformation. Similar to A2A, it appears that mutating L2.46 (L95 in 5HT2C) to alanine confers significant stability on this receptor increasing the Tm of the receptor by 5.4° C. (FIG. 7). It is notable that in addition to L95, mutating the nearby M93 (two residues away from L2.46) to alanine also confers stability to the agonist bound receptor, resulting in an increase of 2.9° C.
A2AR-(2-316) expression was carried out by using the pRG/III-hs-MBP E. coli expression vector and DH5α cells. Cells were grown at 37° C. in 2 L flasks containing 500 mL of 2×TY medium supplemented with Ampicillin (100 μg/mL) and glucose (0.2% w/v). At OD600≈0.7, IPTG and theophylline were added at final concentrations respectively of 0.5 mM and 100 μM, and the temperature was reduced to 20° C. After 22 to 24 hours, cells were harvested in aliquots of 14 mL, centrifuged for 30 min and stored at −20° C. Both 5HT2C and M4 receptors were transiently expressed in HEK293T cells using GeneJuice transfection reagent used according to the manufacturers guidelines.
5HT2C receptor was solubilised from transiently transfected mammalian cells in 50 mM Hepes pH7.4, 100 mM KCl, 0.5% DDM (0.1% CHS/0.6% CHAPS was added to cells for SCH23390 agonist assay). Tm analysis was performed directly on the soluble lysate. The Tm was determined by incubating 108 μl of the lysate with [N^6-methyl-^3H]Mesulergine radioligand at a final concentration of 17 nM or 9 nM [^3H]SCH23390 for one hour at 4° C. The six ligand incubations are then incubated at six different temperatures from 25° C. to 55° C., for thirty minutes. Receptor bound and free radioligand were separated using a 96-well plate gel filtration assay.
(§2) 5HT2C receptor was solubilised from transiently transfected mammalian cells about 40 hours post transfection, in 50 mM Hepes pH7.4/100 mM KCl/0.5% DDM/(0.1% CHS/0.6% CHAPS was added to cells for SCH23390 agonist assay) and protease inhibitor. Cell lysates were left at 4° C. on a rotator and then cleared by centrifugation at 13,200 rpm for 20 minutes at 4° C. Thermostability analysis was performed directly on the soluble lysate. The Tm was determined by incubating 108 μl of the lysate with [N^6-methyl-^3H]Mesulergine radioligand at a final concentration of 17 nM or 9 nM [^3H]SCH23390 for one hour at 4° C. The six ligand incubations are then incubated at six different temperatures from 25° C. to 55° C., for thirty minutes. Receptor bound and free radioligand were separated using G25 Sephadex spin columns.

5HT2C receptor [2] = experiment: Antagonist binding to 5HT2C NPxxY motif alanine mutants (Table 1); set-up: species or system human; Average / Average - BG: unit not given here; settings: for % of Wildtype binding / DPM1 / DPM2: antagonist Mesulergine binding; for DPM1: replicate 1; for DPM2: replicate 2; for Average - BG: average minus background; for Average: average of DPM1 and DPM2
Description: as §1, §2

5HT2C receptor [3] = experiment: Two point thermostability assay, SCH23390 agonist binding to 5HT2C alanine scan mutants; assay type: physicochemical, human
Description: An alanine scan has been carried out on the 5HT2C receptor in the presence of the agonist SCH23390 in order to stabilise the agonist conformation.
as §2

Molecule	% of Wildtype binding (adenosine A2A receptor)	DPM1 (adenosine A2A receptor)	DPM2 (adenosine A2A receptor)	Average - BG (adenosine A2A receptor)	Average (adenosine A2A receptor)	% of Wildtype binding (5HT2C receptor [2])	DPM1 (5HT2C receptor [2])	DPM2 (5HT2C receptor [2])	Average - BG (5HT2C receptor [2])	Average (5HT2C receptor [2])	other results
B1	7.69%	1488 DPM	1471 DPM	979.5	1479.5						
B2	0.13%	519 DPM	514 DPM	16.5	516.5						
B3	2.78%	888 DPM	820 DPM	354	854						
B4	14.74%	2150 DPM	2602 DPM	1876	2376						
B5											increase of Tm (5HT2C receptor [1]; agonist SCH23390 bound, versus parent 5HT2C): 2.9 °C; Tm (5HT2C receptor [1]; bound to agonist SCH23390): 45.6 °C
B6						14.94%	1855 DPM	1760 DPM	1376	1807.5	
B7						11.22%	1328 DPM	1602 DPM	1033.5	1465	
B8						36.35%	3988 DPM	3569 DPM	3347	3778.5	
B9						22.25%	2512 DPM	2449 DPM	2049	2480.5	
B10											thermostability (agonist binding at the destabilising temperature compared to wild type) (5HT2C receptor [3]): increased agonist binding compared to the wild type receptor
